According to patent US20230203188A1 (published 2023):

T1: full-length cyno SIRPβ1v3 (XP_005568593, clone 1HC6), on CHO cells (cynomolgus monkey, UniProt A0A2K5VYQ9)
T1 construct: whole, on cells; also called Cynomolgus SIRPβ1v3 XP-005568593 Clone 1HC6
T1 sequence: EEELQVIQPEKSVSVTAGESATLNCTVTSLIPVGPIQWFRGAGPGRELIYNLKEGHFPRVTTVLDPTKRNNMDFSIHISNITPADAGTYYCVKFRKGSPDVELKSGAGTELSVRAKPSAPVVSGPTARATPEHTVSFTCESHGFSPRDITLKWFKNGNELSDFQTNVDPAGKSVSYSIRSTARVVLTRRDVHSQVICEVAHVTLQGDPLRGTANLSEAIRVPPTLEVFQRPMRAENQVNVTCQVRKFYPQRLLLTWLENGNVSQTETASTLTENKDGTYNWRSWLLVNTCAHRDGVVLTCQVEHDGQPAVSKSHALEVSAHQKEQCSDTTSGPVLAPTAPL


Key:
[1] = biological target: T1, full-length cyno SIRPβ1v3 …; test: flow cytometry on CHO cells expressing the target
Protocol: (§1) Antibody binding to cells expressing full-length cynomolgus SIRPβ1 (XP_005568598) and SIRPβ1v3 (XP_005568593) is evaluated by flow cytometry. SIRPβ1- or SIRPβ31V3-expressing CHO cells are blocked with donkey IgG and incubated on ice with increasing concentrations of antibodies for 60 minutes, washed and stained with AF647-conjugated donkey F(ab′)₂ anti-human IgG secondary reagent. Cells are washed, fixed, and analyzed by flow cytometry. Median fluorescent intensity is determined and used as a measure of antibody binding.

[2] = biological target: T2, full-length cyno SIRPβ1 (XP_005568598, clone PA2), on CHO cells (cynomolgus monkey); test: flow cytometry on CHO cells expressing the target
T2 construct: whole, on cells; also called Cynomolgus SIRPβ1 XP_005568598 Clone PA2
Protocol: as §1

| EC50 [1] | EC50 [2] | Binder |
| --- | --- | --- |
| 0.4 nM | – | KWAR23 (antibody, V domains shown) VH: EVQLQQSGAELVKPGASVKLSCTASGFNIKDYYIHWVQQRTEQGLEWIGRIDPEDGETKYAPKFQDKATITADTSSNTAYLHLSSLTSEDTAVYYCARWGAYWGQGTLVTVSS VL: QIVLTQSPAIMSASPGEKVTLTCSASSSVSSSYLYWYQQKPGSSPKLWIYSTSNLASGVPARFSGSGSGTSYSLTISSMEAEDAASYFCHQWSSYPRTFGAGTKLELK |
| – | 0.7 nM | Antibody A (antibody, human IgG1, kappa, L234A L235A, human IgG1 (LALA) backbone, kappa) heavy: not shown light: DIQMTQSPSSLSASVGDRVTITCRASQDINNYLAWFQQKPGKAPKSLIYTASSLHSGVPSKFSGSGSGTDFTLTISSLQPEDFATYYCQQYVSYPYTFGQGTKLEIKRTVAAPSVFIFPPSDEQLKSGTASVVCLLNNFYPREAKVQWKVDNALQSGNSQESVTEQDSKDSTYSLSSTLTLSKADYEKHKVYACEVTHQGLSSPVTKSFNRGEC |
| – | 0.6 nM | Antibody A10 (antibody, human IgG1, kappa, L234A L235A, engineered variant of Antibody A; IgG1 (LALA)) heavy: not shown light: DIQMTQSPSSLSASVGDRVTITCRASQDINNYLAWFQQKPGKAPKSLIYTASSLHSGVPSKFSGSGSGTDFTLTISSLQPEDFATYYCQQYVSYPYTFGQGTKLEIKRTVAAPSVFIFPPSDEQLKSGTASVVCLLNNFYPREAKVQWKVDNALQSGNSQESVTEQDSKDSTYSLSSTLTLSKADYEKHKVYACEVTHQGLSSPVTKSFNRGEC |
